Data from patent US20180214569A1 (Regeneron, published 2018).
Changes are numbered by the printed parent chain.

T1: HlgB (GS) (Staphylococcus aureus, UniProt P0A077 26-325)
T1 sequence: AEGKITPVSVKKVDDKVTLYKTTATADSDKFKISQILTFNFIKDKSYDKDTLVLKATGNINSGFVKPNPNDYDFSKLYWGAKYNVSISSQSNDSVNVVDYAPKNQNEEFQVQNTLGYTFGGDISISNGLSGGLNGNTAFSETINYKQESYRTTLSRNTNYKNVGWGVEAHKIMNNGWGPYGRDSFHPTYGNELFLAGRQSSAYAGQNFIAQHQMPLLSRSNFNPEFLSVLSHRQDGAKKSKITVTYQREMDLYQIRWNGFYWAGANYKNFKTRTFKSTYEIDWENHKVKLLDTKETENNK

T2: LukD (GS) (Staphylococcus aureus, UniProt O54082 27-327)
T2 sequence: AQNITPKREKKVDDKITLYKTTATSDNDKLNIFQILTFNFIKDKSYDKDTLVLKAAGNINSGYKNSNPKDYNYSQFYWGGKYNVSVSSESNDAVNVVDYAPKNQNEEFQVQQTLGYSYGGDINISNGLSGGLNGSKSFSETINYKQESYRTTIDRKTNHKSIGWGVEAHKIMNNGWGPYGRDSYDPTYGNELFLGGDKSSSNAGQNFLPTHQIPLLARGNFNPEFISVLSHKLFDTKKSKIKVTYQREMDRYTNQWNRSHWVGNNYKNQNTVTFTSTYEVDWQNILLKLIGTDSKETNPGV

B1: H1H15378P (antibody, V domains shown)
VH: EVQLVESGGGLVQPGGSLRLSCAASGFTFNNYEMNWVRQAPGKGLEWVSFISSSGSTIDYAVSVKGRFTISRDNAKNSLYLQMNSLRPGDTAVYYCARARLDFYYYGMDVWGQGTTVTVSS
VL: DIQMTQSPSSLSASVGDRVTITCRASQGISNYLAWFQQKPGKAPKSLIYATSTLQSGVPSKFSGSGSGTDFTLTISSLQPEDFATYYCQQYNSFPLTFGGGTKVEIK
B2: H1H15379P (antibody, V domains shown)
VH: EVQLVESGGGLVQPGWSLRLSCAASGFTFDDYAMHWVRQAPGKGLEWVSGISWNSDDIDYTDSVKGRFTVSRDNAKNSLYLQMNSLRADDTAFYYCVRQRVRGYYYFGMDVWGQGTTVTVSS
VL: B1 VL with K45M, T51A, T53S, F94Y, L96F, G100P, E105D
B3: H1H15408P (antibody, V domains shown)
VH: EVQLVESGGGLVQPGGSLRLSCAASGFTFSRYDMSWVRQAPGKGLEWVSAISYSGDSTYYADSVQGRFTISRDNSKNTLYLQMNSLRAEDTALYHCAKDNGYSGTYYYYYGMDVWGQGTTVTVSS
VL: B1 VL with S46F, T51A, T53S, F94Y, L96Y, G100Q, V104L
B4: H1H15380P (antibody, V domains shown)
VH: QVQLQESGPGLVKPSETLSLMCTVSGGSINNYYWSWIRQPPGKGLEWIGYIYNGGITKYNPSLKSRVTISVDTSKSQISLKLNSVTAADTAFYYCTKEQLERREGHIWFDPWGQGTLVTVSS
VL: DIQMTQSPSSLSASVGDRVTITCRASQTINNYLNWYHQKPGKAPKLLIYGTSSLQSGVPSRFSGSGSGTEFALTISSLQPEDFATYYCQQSSSTPYTFGQGTKLEIK
B5: H1H15377P (antibody, V domains shown)
VH: EVQLVESGGGLVQPGGSLRLSCAASGFTFTSYEMNWVRQAPGKGLEWISYISSGGDTKYYADSVRGRFTISRDNAKNSLYLQMNSLRAEDTALYYCARDVLNWVFDYWGRGTLVTVSS
VL: DIQMTQSPSSLSASVGDRVTITCRASQSIGKYLNWYRQSPGKAPKLLIYATSSLQSGVPSSFSGSGSGTDFTLTISSLQPEDFATYYCQQGFRTPFTFGPGTKVDIK
B6: H1H15376P (antibody, V domains shown)
VH: QVQLQQSGPGLVKPSQTLSLTCAISGDSVASNNAAWNWIRQSPSRGLEWLGRTYYRSKWFNDYVESVKSRISFNPDTSKNQFSLQLNSVTPEDTAVYYCARSYYDFWSGYSENNYYFYGMDVWGQGTTVTVSS
VL: DIQMTQSPSSLSASVGDRVSITCRTSQGIRNDLGWYQQKPGKAPKRLIYAASSLQSGVPSRFSGSGSGTEFTLTISSLQPEDFATYYCLQHNIYPPTFGQGTKVEIK
B7: H1H15404P (antibody, V domains shown)
VH: QVQLQESGPGLVKPSETLSLTCTVSGGSISGYFWGWIRQTPGKGLEWIGYIFYSGSTHYNPSFKSRVTMSVDTSKNQFALKLRSVTAADTAKYYCSRQREYYGSGNYRYFGMDVWGQGTTVTVSS
VL: AIQMTQSPSSLSASVGERVTITCRASQDIRDDLGWYQQRPGKAPNLLIYAASSLHSGVPSRFSGSGSGTDFTLTISSLQPEDFATYYCLQDYNYPWTFGQGTKVEIK
B8: H1H15410P (antibody, V domains shown)
VH: QVQLQESGPGLVKPSETLSLTCTVSGGSISGYFWGWVRQPPGKGLEWIGYIFYSGSTNYNPSLKSRITLSVDTSKNQFSLKLSSVTAADTAIYYCARHREYYGSGNYRYYALDVWGQGTTVTVSS
VL: B7 VL with E17D, D28G, R39K, N45K, H55Q, Y94F, W96L
B9: H1H15399P (antibody, V domains shown)
VH: EVQLVESGGGLVQPGGSLRLSCAASGFTFSSSAMSWVRQAPGKGLEWVSTLNVGADSTFYAGSVRGRFTISRDNSKNTLFLQMNSLRAEDTAVYYCAKDWGGIPYYYYYYGMDVWGQGTTVTVSS
VL: DIQLTQSPSFLSASVGDRVTITCWASQGISSYLAWYQQKPGKAPNLLIYTASTLQSGVPSRFSGSGSGTEFTLTISSLQPEDFATYYCQQLNSYPLTFGGGTKVEIK
B10: H1H15414P (antibody, V domains shown)
VH: EVQLVESGGDLVQPGGSLRLSCAASGFTFSSFEMNWVRQAPGKGLEWVSYISSSGSTIYYADSVKDRFTVSRDKDKNSLYLQMNSLRAEDTAVYYCARGSWNQPYFDYWGQGTLVTVSS
VL: DIQMTQSPSTLSASVGDRVTITCRASQSISSWLAWYQLKPGKAPKVLIYKASSLESGVPSRFSGSGSGTEFTLTINSLQPDDFATYYCQQYNSWTFGQGTKVEIK
B11: H1H15405P (antibody, V domains shown)
VH: EVQLVESGGGLVQPGGSLRLSCGASGFTFSYYWMTWVRQAPGKGLEWVANINQDGSEKFYVDSVRGRFTISRDNAKKSLYLQMNSLRAEDTAVYYCARDGYCSSIGCYNLYGMDVWGQGTTVTVSS
VL: DIQMTQSPSSLSASVGDRVTITCRASQNINKYLNWYQQKPGQAPKLLIYTTSSLQSGVPSRFSGSGSGTDFTLTISSLQPEDFATYSCQQSYNSPLTFGGGTKVEIK
B12: H1H15418P2 (antibody, V domains shown)
VH: QVQLVESGGGLVRPGGSLRLSCEASGFTFNEHYMSWIRQAPGKGLEWVAFISSGGSIIYYADSVKGRFTISRDSAKNSLYLQMNSLRPEDTAIYYCAREPFGGIIVFDYWGQGTLVTVSS
VL: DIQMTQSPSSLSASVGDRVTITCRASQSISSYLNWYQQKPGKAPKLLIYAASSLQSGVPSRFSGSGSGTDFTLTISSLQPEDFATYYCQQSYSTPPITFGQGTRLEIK
B13: H1H15420P2 (antibody, V domains shown)
VH: QVQLQESGLGLVKPSETLSLTCTVSGDSIGTYYWSWIRQPPGKGLEWIAYIYDSRHSNSNPSLKSRVTTSVDMSKNQFSLQLKSVTAADTAVYFCARDWGTWKPEGAFDIWGQGTMVTVSS
VL: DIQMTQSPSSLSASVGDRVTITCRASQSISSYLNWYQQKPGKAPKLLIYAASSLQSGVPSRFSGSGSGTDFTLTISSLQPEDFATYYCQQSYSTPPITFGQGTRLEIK
B14: H1H15375P (antibody, V domains shown)
VH: QVQLVESGGGGVQPGRSLRLSCEASGFTFSDYGMQWVRQAPGKGLEWVAVIWDDGRKKYYADSVKGRFTVSRDNSKNTLYLEINSLRVEDTAVYYCAREGSSSSGRYFLYGMDVWGQGTTVTVSS
VL: DIQMTQSPSSLSASVGDRVTITCRASQRISSYLNWYQQKLGKAPKLLISVASSLQSGVPSRFSGSGSGTDFTLTISSLQPEDFGIYYCQQSYNTPPWTFGQGTKVEIK

Molecular target: T1, HlgB (GS)
Test: ELISA, plate coated with toxin component
Experimental: (§1) MaxiSorp microtiter plates were coated overnight with 10 μg/mL of individual F-components of S. aureus bicomponent toxins per well. Recombinant toxin components were either obtained from IBT BioServices (Gaithersburg, Md.) or generated by GenScript (Piscataway Township, N.J.). […] Wells were washed 3 times and then incubated with 100 ng/mL anti-human HRP secondary antibody per well for one hour at 25° C. 100 μL of SuperSignal ELISA Pico Chemiluminescent Substrate, (ThermoFisher Scientific) was added to the wells and signal was detected (Victor X3 plate reader, Perkin Elmer). Luminescence values were analyzed by a three-parameter logistic equation over an 11-point response curve (GraphPad Prism). Isotype-matched irrelevant control antibody and S. aureus delta toxin were included as controls.

Does B1 bind?
Result: no binding (tested: titration 50 uM-100 pM)

Does B2 bind?
Result: no binding (tested: titration 50 uM-100 pM)

Does B3 bind?
Result: no binding (tested: titration 50 uM-100 pM)

Does B4 bind?
Result: no binding (tested: titration 50 uM-100 pM)

Does B5 bind?
Result: no binding (tested: titration 50 uM-100 pM)

Does B6 bind?
Result: no binding (tested: titration 50 uM-100 pM)

Does B7 bind?
Result: no binding (tested: titration 50 uM-100 pM)

Does B8 bind?
Result: no binding (tested: titration 50 uM-100 pM)

Does B9 bind?
Result: no binding (tested: titration 50 uM-100 pM)

Does B10 bind?
Result: no binding (tested: titration 50 uM-100 pM)

Does B11 bind?
Result: no binding (tested: titration 50 uM-100 pM)

Does B12 bind?
Result: no binding (tested: titration 50 uM-100 pM)

Does B13 bind?
Result: no binding (tested: titration 50 uM-100 pM)

Molecular target: S. aureus delta toxin (Staphylococcus aureus, UniProt P0C1V1 1-26)
Test: ELISA, plate coated with toxin component
Experimental: as §1

Does B14 bind?
Result: no binding (tested: titration 50 uM-100 pM)

Does B1 bind?
Result: no binding (tested: titration 50 uM-100 pM)

Does B2 bind?
Result: no binding (tested: titration 50 uM-100 pM)

Does B3 bind?
Result: no binding (tested: titration 50 uM-100 pM)

Does B4 bind?
Result: no binding (tested: titration 50 uM-100 pM)

Does B5 bind?
Result: no binding (tested: titration 50 uM-100 pM)

Does B6 bind?
Result: no binding (tested: titration 50 uM-100 pM)

Does B7 bind?
Result: no binding (tested: titration 50 uM-100 pM)

Does B8 bind?
Result: no binding (tested: titration 50 uM-100 pM)

Does B9 bind?
Result: no binding (tested: titration 50 uM-100 pM)

Does B10 bind?
Result: no binding (tested: titration 50 uM-100 pM)

Does B11 bind?
Result: no binding (tested: titration 50 uM-100 pM)

Does B12 bind?
Result: no binding (tested: titration 50 uM-100 pM)

Does B13 bind?
Result: no binding (tested: titration 50 uM-100 pM)

Molecular target: T2, LukD (GS)
Test: ELISA, plate coated with toxin component
Experimental: as §1

Does B1 bind?
Result: no binding (tested: titration 50 uM-100 pM)

Does B2 bind?
Result: no binding (tested: titration 50 uM-100 pM)

Does B3 bind?
Result: no binding (tested: titration 50 uM-100 pM)

Does B4 bind?
Result: no binding (tested: titration 50 uM-100 pM)

Does B5 bind?
Result: no binding (tested: titration 50 uM-100 pM)

Does B6 bind?
Result: no binding (tested: titration 50 uM-100 pM)

Does B7 bind?
Result: no binding (tested: titration 50 uM-100 pM)

Does B8 bind?
Result: no binding (tested: titration 50 uM-100 pM)

Does B9 bind?
Result: no binding (tested: titration 50 uM-100 pM)

Does B10 bind?
Result: no binding (tested: titration 50 uM-100 pM)

Does B11 bind?
Result: no binding (tested: titration 50 uM-100 pM)

Does B12 bind?
Result: no binding (tested: titration 50 uM-100 pM)

Does B13 bind?
Result: no binding (tested: titration 50 uM-100 pM)
